Experimental data from the DeepSol protein solubility set.

Assay: soluble on expression in E. coli; label from the status in PepcDB or PDB records

Question: Which “soluble on expression in E. coli” value does the source give for “MAEDLYKRLNTVDRLFTLALDLHSHTDLAAQTLMKSGKVHSIERVETDMLYQNHDKKFHLRSREFLDFPQNYCDLIVSLLSLQLTNDTPGVLSQIKNILKPDGLFLAVMAGVGTLSELRECLLQAEIEIYGGASPRIYPFADIRAVGALLQRVGFALPVADIEDVTIRYDTMFDLINDLRAMGMQNALINRSRRPVSKRFFLRAAEIYAKRFSDLDGRIRAHFSFIWLSGWAPHPNQQKPIQPGSAQISLADVLVKQSKKT” here?
Answer: Its value is “not soluble”.

Question: With “MAEPARARPKITPETQHYWDGAKQGELRLQRCDSCAHAYFPPRPFCPKCGSREVSVFKASGKGTLYSYVINHRPLAAGFTEPYAIAVVELEEGPRMMSNILECPQTPEALELDMKLEVTFQKIDDNLTLPQFRPAKG” as the sequence, how does the “soluble on expression in E. coli” value read?
Answer: Its value is “not soluble”.

Question: With “MAEPWGNELASAAARGDLEQLTSLLQNNVNVNAQNGFGRTALQVMKLGNPEIARRLLLRGANPDLKDRTGNAVIHDAARAGFLDTLQTLLEFQADVNIEDNEGNLPLHLAAKEGHLRVVEFLVKHTASNVGHRNHKGDTACDLARLYGRNEVVSLMQANGAGGATNLQ” as the sequence, how does the “soluble on expression in E. coli” value read?
Answer: Its value is “soluble”.

Question: With “MAESCVKPQLPRPRIPNIRVFQPTTRIPTFTYEQFNESVEILPSRPECLYRRNDPTNRSYRMKKRPPAQIYHCVQCNKHIKYPSKITEHIRKHTGEKPNVCSICNISFSQAHTLKTHMQQHAHEKPYKCSFCTAEFLNVYEKNEHEEQHMHHPNHGETMEENNATTSQFIQVAEPTIQAEPCQIYECSEMCGFQSYEEAEVVEHMTVTHYQQTKKSKEIPKLKNPGFSINFNYFQVQNGLILQDFNGEPEPIYEFYEEQYVQQVPTEIEETPTIKQQSIPYENLHFEHVEAAPGPSEPHLQVVAEGEILYDGEEIVDISNGKSLKEEIQNGDANIYGMIQDLEEEVEDIGNEDEERERVRIMVNPNPPKRGTKSLRDHHEATAATMEMIVDASILELAEPSRHLKQGYPPISKRKNTGKRAENLDWIIDAVAKGVDVSEASPHHRKKPTLHKCEYCGRVDKYPSKIRAHMRTHTGEKPFKCEICGMAFSQKTPMRLHLRRHFDQKPYECDVDGCKERFVSGAILKMHVEKKHLNKKKYVCSRGCGRVFSSAYNQKHHEKKCEQTYVTWVEGEQQSVESGEEDEESNGEYPDDDEEYMDDMIDASTSQPINRVVEHFSEEPVFLHQ” as the sequence, how does the “soluble on expression in E. coli” value read?
Answer: Its value is “not soluble”.

Question: Which “soluble on expression in E. coli” value does the source give for “MAETDPKSVQDLTAVVQTLLQQMQDKFQTMSDQIIGRIDEMSTRIDDLEKNIADLMTQAGVEEIEGENKVKEGDAS” here?
Answer: The value was “soluble”.

Question: Which “soluble on expression in E. coli” value does the source give for “MAETQFTRFPFQPFIIEAIKTLRFYKPTEIQERIIPGALRGESMVGQSQTGTGKTHAYLLPIMEKIKPERAEVQAVITAPTRELATQIYHETLKITKFCPKDRMIVARCLIGGTDKQKALEKLNVQPHIVIGTPGRINDFIREQALDVHTAHILVVDEADLMLDMGFITDVDQIAARMPKDLQMLVFSATIPEKLKPFLKKYMENPTFVHVLEHHHHHH” here?
Answer: Its value is “soluble”.

Question: For “MAEVAPNSTLYINNLNEKIKIDELRKSLVAVFKQFGEIVSVMCFRTLKMRGQAHVIFKELPAASAAREALNGFPFYEKPMRIQFAREDSDVVAQEKGTYIKREPKYLSEKILKKPKSRKKENGGDGPAPPNKILFCTNLPDSATAEMLEIMFNQFAGLKDIRMVPNRPGIAFVEFDTDSLAIPARTTLNNFKISAEHTMRVDYAKK”, which “soluble on expression in E. coli” value is on record?
Answer: The value was “soluble”.

Question: With “MAEVTILGLGNLLWADEGFGVRAAEKLFEQYADNEKVDVVDGGTQGLALLPWLQQTEKLLIMDAIDFGMAPGSLAMFRDEQVPAYLTAKKLSLHQTSFSEVLALLQLTGGQLSEIVLIGVQPECLDDYGGSLTPQVKAQLMPAVYLAQEVLAQWGITASSAALPTERLNHYSLCMERYEDERPDAQSACRVGDIRVLQREKS” as the sequence, how does the “soluble on expression in E. coli” value read?
Answer: Its value is “not soluble”.

Question: With “MAFELPKLPYAFDALEPHFDKETMEIHHDRHHNTYVTKLNAAVEGTDLESKSIEEIVANLDSVPANIQTAVRNNGGGHLNHSLFWELLSPNSEEKGTVVEKIKEQWGSLEEFKKEFADKAAARFGSGWAWLVVNNGQLEIVTTPNQDNPLTEGKTPILGLDVWEHAYYLKYQNKRPDYIGAFWNVVNWEKVDELYNATK” as the sequence, how does the “soluble on expression in E. coli” value read?
Answer: The value was “not soluble”.

Question: For “MAFFESDIVQDEAKRLFGDYQQLMQLGSEYGKFDREGKKKFIETMEELMGRYRVFMKRFELSEDFQAKLTVEQLRTQLSQFGITPEQMFEQMNATLERMKAQIELPPSS”, which “soluble on expression in E. coli” value is on record?
Answer: Its value is “not soluble”.

Question: For “MAFIESWAKRTWLVPPQMQLYVDYKIKVTEILTNYTSIEEIHSYSIDESFLDITESLNFFYPDIRNRYEQMNLITLDLQREILDKLGLYVTVGMGDNPLLAKLAMDNYAKHNQNMRALIRYLEHHHHHH”, which “soluble on expression in E. coli” value is on record?
Answer: The value was “not soluble”.

Question: With “MAFLPLYIPKGRRLKIVIVGGGYAGIAALVTLHRYSPDAEITLIDPGIDHLKITHLHETFRYPLSDFLVPYAFLEQRFGCRHIRSALAVDESMLCQWQRDRYLQVDDQQVPFDYLLVASGARSFTRNETDERTAADAENIVRLENFFTVSGADLLDRFLATQDRAGNTAPSCISVVGGGATGIQFLFELAGYLRRRRINHGLQLVDDNERVLQRYPGGFARYVEMRMLELDIEFYPGVCFLEQRADTVLLEDKTSGRHFELPSVLSLVFTGNRQDNLIKTNAFGQVMVDGKPLGNIFAAGDCSVYPSLGSNTMTAQSAVRKGKLAARNILRHSGVLKVLEPYLHHDLGYVVSLGPEDAVGWLAVENNVVTGVPALAIKEIVEAQYDLLLSGVDTYLVLEHHHHHH” as the sequence, how does the “soluble on expression in E. coli” value read?
Answer: Its value is “not soluble”.

Question: For “MAFQQPNLQQIFSSVDKDRSGQISSDELQTALSNGTWNPFNPETCRLMIGMFDSNGDGAINFQEFQALWRYINDWTNCFRGFDTDGSGNIDKSELTNALTQFGYRLSPQFYNILMHKFDRSHSNRINFDDFIQLCVVLQTLTAAFRLEIRAKIDLEI”, which “soluble on expression in E. coli” value is on record?
Answer: Its value is “not soluble”.

Question: Which “soluble on expression in E. coli” value does the source give for “MAGFEIQRVESKFFDLDDIIAKSDSTSCTFEIGDLNPDFFQEMLGVSKPTQNADGYGVDAPYWLLESVRSSFSIQLPKAYSVNMQNVLNADSKKLNLSGLQQHFYGNGMQLCRLMKGENPDGALSLARCLVSTLTQRLGEIVSTATHLQSKGEKFDSLETKVFLEGKRCKEDIDTWLRQDNKCSSKKRKRLSL” here?
Answer: Its value is “not soluble”.

Question: For “MAGGARDDLAEKMAGEVALSDDPGATLRKWRTDFDVAQTELADELDVSPSVVSDYESGRRDNPGIGVVRRLVVALLDIDENRGGDHIRQHARVLSAGFDSDVVHDLREYSANVGVERVYDAIDAEELFRGSQDTVAGHTVINSIAAITRLSSDEFYQLYGQSTNRALVFTNVTRGESPLVALRVVSPTPNAVILHGLEDEAVWEHAQDLARIDDFSLAITDIELEDLLGGLRELP”, which “soluble on expression in E. coli” value is on record?
Answer: Its value is “not soluble”.

Question: With “MAGPSWRHIRAEGLDCSYTVLFGKAEADEIFQELEKEVEYFTGALARVQVFGKWHSVPRKQATYGDAGLTYTFSGLTLSPKPWIPVLERIRDHVSGVTGQTFNFVLINRYKDGCDHIGEHRDDERELAPGSPIASVSFGACRDFVFRHKDSRGKSPSRRVAVVRLPLAHGSLLMMNHPTNTHWYHSLPVRKKVLAPRVNLTFRKILLTKKLEHHHHHH” as the sequence, how does the “soluble on expression in E. coli” value read?
Answer: Its value is “soluble”.

Question: Which “soluble on expression in E. coli” value does the source give for “MAGRLREMRCELSFLKNADGSACFSQGATCIWASCSGPGDVHASKASDEAMTLDISYRANCGDNKFNVLNNIIHSTLSNAINLELFPHTTISVTVHGIQDDGSMGAVAINGACFALLDNGMPFETVFCGVLIVRVKDELIIDPTAKQEAASTGRVLFSVCKGSDGHPEVCAMDAIGHWDFIQLEAAWSLAQPSASAIFDFYKTVMKRKLSVDEQ” here?
Answer: Its value is “not soluble”.

Question: For “MAGWNLEPEYTSLARDFGSLDAVFALQGQQLTRDPLSDVIRVERAGVYYFVKRYVGAGKGLRRYMGKPRVKSEWQNLKRFAKWGIPTAEVVAWGLERNGAAYDRGALITRGLPNTEDLSALAQRKDPRLADRQWVDGISRQLAAYTRIMHDNHFTHNDLKWRNLLVDNEDRLFFIDCPNGAFWWSFMLRYRITKDLACLDKVAKYHLSATQRLRFYLQYRQRARLNAADKKRIRHIVSFFEGRE”, which “soluble on expression in E. coli” value is on record?
Answer: Its value is “not soluble”.

Question: For “MAHGFHASVMAITLDKITLTETTLTNPKAVEYQWVRTLYVQGYQPEAINHYIQTCFGGDETFADLFRRVAMHEESLYLLLQYLSCAPSSREF”, which “soluble on expression in E. coli” value is on record?
Answer: The value was “soluble”.
